Measured values reported in patent US10919943B2, “Mutant proteins enabling agrochemical control of plant gene expression” (The Regents of the University of California, priority 2016, dated 2021).

System: HAB1
Assay: Yeast two hybrid of pBD-PYR1 site saturation mutants with pACT-HAB1 on 10 μM ABA, β-galactosidase staining
Format: cell-based, Arabidopsis
Set-up: key: x: Mutations in PYR1 that disrupt ABA-induced binding to PYR1 to HAB1
Conditions: S. cerevisiae Y190, 10 μM ABA; dead = lack of visible staining in comparison to wild type control
Procedure, shortened: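 Binding was read by β-galactosidase staining of chloroform-lysed colonies after 2 days at 30° C on SD (-Leu, -Trp) plates containing 10 μM (+)-ABA. Yeast strain Y190 carried the BD-PYR1 single-substitution mutants plus the AD-HAB1 fusion. Absence of staining versus the wild-type control defined "dead" mutants.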

Molecule | Mutations in PYR1 that disrupt ABA-induced binding to PYR1 to HAB1
L117T: PYR1 mutant (protein, UniProt O49686 1-191, looked up, variant L117T) Abscisic acid receptor PYR1: MPSELTPEERSELKNSIAEFHTYQLDPGSCSSLHAQRIHAPPELVWSIVRRFDKPQTYKHFIKSCSVEQNFEMRVGCTRDVIVISGLPANTSTERLDILDDERRVTGFSIIGGEHRTTNYKSVTTVHRFEKENRIWTVVLESYVVDMPEGNSEDDTRMFADTVVKLNLQKLATVAEAMARNSGDGSGSQVT | x
L117V: PYR1 mutant (protein, UniProt O49686 1-191, looked up, variant L117V) Abscisic acid receptor PYR1: MPSELTPEERSELKNSIAEFHTYQLDPGSCSSLHAQRIHAPPELVWSIVRRFDKPQTYKHFIKSCSVEQNFEMRVGCTRDVIVISGLPANTSTERLDILDDERRVTGFSIIGGEHRVTNYKSVTTVHRFEKENRIWTVVLESYVVDMPEGNSEDDTRMFADTVVKLNLQKLATVAEAMARNSGDGSGSQVT | x
L117W: PYR1 mutant (protein, UniProt O49686 1-191, looked up, variant L117W) Abscisic acid receptor PYR1: MPSELTPEERSELKNSIAEFHTYQLDPGSCSSLHAQRIHAPPELVWSIVRRFDKPQTYKHFIKSCSVEQNFEMRVGCTRDVIVISGLPANTSTERLDILDDERRVTGFSIIGGEHRWTNYKSVTTVHRFEKENRIWTVVLESYVVDMPEGNSEDDTRMFADTVVKLNLQKLATVAEAMARNSGDGSGSQVT | x
L117Y: PYR1 mutant (protein, UniProt O49686 1-191, looked up, variant L117Y) Abscisic acid receptor PYR1: MPSELTPEERSELKNSIAEFHTYQLDPGSCSSLHAQRIHAPPELVWSIVRRFDKPQTYKHFIKSCSVEQNFEMRVGCTRDVIVISGLPANTSTERLDILDDERRVTGFSIIGGEHRYTNYKSVTTVHRFEKENRIWTVVLESYVVDMPEGNSEDDTRMFADTVVKLNLQKLATVAEAMARNSGDGSGSQVT | x
L117D: PYR1 mutant (protein, UniProt O49686 1-191, looked up, variant L117D) Abscisic acid receptor PYR1: MPSELTPEERSELKNSIAEFHTYQLDPGSCSSLHAQRIHAPPELVWSIVRRFDKPQTYKHFIKSCSVEQNFEMRVGCTRDVIVISGLPANTSTERLDILDDERRVTGFSIIGGEHRDTNYKSVTTVHRFEKENRIWTVVLESYVVDMPEGNSEDDTRMFADTVVKLNLQKLATVAEAMARNSGDGSGSQVT | x
L117E: PYR1 mutant (protein, UniProt O49686 1-191, looked up, variant L117E) Abscisic acid receptor PYR1: MPSELTPEERSELKNSIAEFHTYQLDPGSCSSLHAQRIHAPPELVWSIVRRFDKPQTYKHFIKSCSVEQNFEMRVGCTRDVIVISGLPANTSTERLDILDDERRVTGFSIIGGEHRETNYKSVTTVHRFEKENRIWTVVLESYVVDMPEGNSEDDTRMFADTVVKLNLQKLATVAEAMARNSGDGSGSQVT | x
L117G: PYR1 mutant (protein, UniProt O49686 1-191, looked up, variant L117G) Abscisic acid receptor PYR1: MPSELTPEERSELKNSIAEFHTYQLDPGSCSSLHAQRIHAPPELVWSIVRRFDKPQTYKHFIKSCSVEQNFEMRVGCTRDVIVISGLPANTSTERLDILDDERRVTGFSIIGGEHRGTNYKSVTTVHRFEKENRIWTVVLESYVVDMPEGNSEDDTRMFADTVVKLNLQKLATVAEAMARNSGDGSGSQVT | x
L117H: PYR1 mutant (protein, UniProt O49686 1-191, looked up, variant L117H) Abscisic acid receptor PYR1: MPSELTPEERSELKNSIAEFHTYQLDPGSCSSLHAQRIHAPPELVWSIVRRFDKPQTYKHFIKSCSVEQNFEMRVGCTRDVIVISGLPANTSTERLDILDDERRVTGFSIIGGEHRHTNYKSVTTVHRFEKENRIWTVVLESYVVDMPEGNSEDDTRMFADTVVKLNLQKLATVAEAMARNSGDGSGSQVT | x
L117K: PYR1 mutant (protein, UniProt O49686 1-191, looked up, variant L117K) Abscisic acid receptor PYR1: MPSELTPEERSELKNSIAEFHTYQLDPGSCSSLHAQRIHAPPELVWSIVRRFDKPQTYKHFIKSCSVEQNFEMRVGCTRDVIVISGLPANTSTERLDILDDERRVTGFSIIGGEHRKTNYKSVTTVHRFEKENRIWTVVLESYVVDMPEGNSEDDTRMFADTVVKLNLQKLATVAEAMARNSGDGSGSQVT | x
P148L: PYR1 mutant (protein, UniProt O49686 1-191, looked up, variant P148L) Abscisic acid receptor PYR1: MPSELTPEERSELKNSIAEFHTYQLDPGSCSSLHAQRIHAPPELVWSIVRRFDKPQTYKHFIKSCSVEQNFEMRVGCTRDVIVISGLPANTSTERLDILDDERRVTGFSIIGGEHRLTNYKSVTTVHRFEKENRIWTVVLESYVVDMLEGNSEDDTRMFADTVVKLNLQKLATVAEAMARNSGDGSGSQVT | x
P148M: PYR1 mutant (protein, UniProt O49686 1-191, looked up, variant P148M) Abscisic acid receptor PYR1: MPSELTPEERSELKNSIAEFHTYQLDPGSCSSLHAQRIHAPPELVWSIVRRFDKPQTYKHFIKSCSVEQNFEMRVGCTRDVIVISGLPANTSTERLDILDDERRVTGFSIIGGEHRLTNYKSVTTVHRFEKENRIWTVVLESYVVDMMEGNSEDDTRMFADTVVKLNLQKLATVAEAMARNSGDGSGSQVT | x
P148N: PYR1 mutant (protein, UniProt O49686 1-191, looked up, variant P148N) Abscisic acid receptor PYR1: MPSELTPEERSELKNSIAEFHTYQLDPGSCSSLHAQRIHAPPELVWSIVRRFDKPQTYKHFIKSCSVEQNFEMRVGCTRDVIVISGLPANTSTERLDILDDERRVTGFSIIGGEHRLTNYKSVTTVHRFEKENRIWTVVLESYVVDMNEGNSEDDTRMFADTVVKLNLQKLATVAEAMARNSGDGSGSQVT | x
P148Q: PYR1 mutant (protein, UniProt O49686 1-191, looked up, variant P148Q) Abscisic acid receptor PYR1: MPSELTPEERSELKNSIAEFHTYQLDPGSCSSLHAQRIHAPPELVWSIVRRFDKPQTYKHFIKSCSVEQNFEMRVGCTRDVIVISGLPANTSTERLDILDDERRVTGFSIIGGEHRLTNYKSVTTVHRFEKENRIWTVVLESYVVDMQEGNSEDDTRMFADTVVKLNLQKLATVAEAMARNSGDGSGSQVT | x
P148R: PYR1 mutant (protein, UniProt O49686 1-191, looked up, variant P148R) Abscisic acid receptor PYR1: MPSELTPEERSELKNSIAEFHTYQLDPGSCSSLHAQRIHAPPELVWSIVRRFDKPQTYKHFIKSCSVEQNFEMRVGCTRDVIVISGLPANTSTERLDILDDERRVTGFSIIGGEHRLTNYKSVTTVHRFEKENRIWTVVLESYVVDMREGNSEDDTRMFADTVVKLNLQKLATVAEAMARNSGDGSGSQVT | x
P148S: PYR1 mutant (protein, UniProt O49686 1-191, looked up, variant P148S) Abscisic acid receptor PYR1: MPSELTPEERSELKNSIAEFHTYQLDPGSCSSLHAQRIHAPPELVWSIVRRFDKPQTYKHFIKSCSVEQNFEMRVGCTRDVIVISGLPANTSTERLDILDDERRVTGFSIIGGEHRLTNYKSVTTVHRFEKENRIWTVVLESYVVDMSEGNSEDDTRMFADTVVKLNLQKLATVAEAMARNSGDGSGSQVT | x
P148T: PYR1 mutant (protein, UniProt O49686 1-191, looked up, variant P148T) Abscisic acid receptor PYR1: MPSELTPEERSELKNSIAEFHTYQLDPGSCSSLHAQRIHAPPELVWSIVRRFDKPQTYKHFIKSCSVEQNFEMRVGCTRDVIVISGLPANTSTERLDILDDERRVTGFSIIGGEHRLTNYKSVTTVHRFEKENRIWTVVLESYVVDMTEGNSEDDTRMFADTVVKLNLQKLATVAEAMARNSGDGSGSQVT | x
